# Measurements as given in the supplement of paper PMC10567573.
# ± gives the standard deviation.
# Assay: protein stability index of a GFP-peptide fusion (GPS, HEK-293T) (PSI 1-6); higher = more stable
# Conditions: c terminus: a fixed tail appended
# 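Also: 24-mer peptide tiles fused after GFP, lentivirally expressed, FACS-sorted into six equal bins by GFP/DsRed ratio, decoded by Illumina sequencing, PSI is the read-weighted mean bin number.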
Sequence,protein stability index (treatment: DMSO),"protein stability index (treatment: MLN4924 1 uM, 8 h)"
KTLAVKNEEIQSFIYSLKQMLLNV [FSD1],2.52 ± 0.37,2.14 ± 0.21
KTLLAIGGWNFSTQKFTDMVATAN [CHIT1],2.39 ± 0.34,2.14 ± 0.21
KTYHYLYLAMLERFQDGDNILEKE [FEM1B],2.03 ± 0.37,2.35 ± 0.2
KVLFALCALNALTTTVCLVAAALR [FAM189A2],3.13 ± 0.6,3.3 ± 0.21
KYKSFNRTAMPYGGYEKASKRMTF [MYOZ1],2.34 ± 0.31,2.57 ± 0.24
KYSFLQFDPAPRRGEPHVTRRTPD [PPP2CA],4.04 ± 0.27,3.85 ± 0.19
LAARVIVNHRIYYKGHIPEKLETF [FEM1C],2.82 ± 0.99,2.47 ± 0.52
LAATQGLAHMIAECKKLFQVPEEM [DLC1],2.52 ± 0.33,2.47 ± 0.37
LAFVIVLLAHRLRRWHKSRLLQAS [PCDHGA10],2.15 ± 0.48,2.21 ± 0.38
LAGGKLILSLEGGYNLRALAEGVS [HDAC6],2.99 ± 0.76,2.31 ± 0.47
LAPDFDRWLDESDAEMELRAKEEE [HACD3],5.52 ± 0.12,5.45 ± 0.21
LAQRTQQDSTRTVGERLQDTHSWK [TEKT4],4.42 ± 0.6,4.64 ± 0.21
LASDKTSAGNAPLNEEINIASSDS [C18orf25],5.48 ± 0.17,5.46 ± 0.16
LATSPITVGDLGIVRRRSRDVPES [YJU2B],4.42 ± 0.12,4.42 ± 0.2
LCPLCGKNFSNNSNLIRHQRIHAA [ZNF263],3.97 ± 0.5,4.12 ± 0.47
LDPHFVPTELWPQEAVPLGLGLED [TEX19],5.13 ± 0.3,4.91 ± 0.17
LEESDIDRDGTINLSEFQHVISRS [CIB1],4.69 ± 0.24,4.75 ± 0.084
LEFRKSMYEEEINETRRKHETRLV [LMNB1],4.02 ± 0.21,4.06 ± 0.25
LELLLDASALTLVLGGRRLRRAWF [SCNN1D],2.94 ± 0.81,2.4 ± 0.58
LERQNQEYQVLLDVKARLEGEIAT [KRT36],3.93 ± 0.077,4.02 ± 0.2
LESLRTAQKTALLQDGRRKVHYLF [DPCD],2.19 ± 0.22,2.45 ± 0.37
LESSEELLETANQTLQAMDSEDFP [FSD1],5.4 ± 0.19,5.57 ± 0.1

Sequence,protein stability index (treatment: DMSO),"protein stability index (treatment: MLN4924 1 uM, 8 h)"
LETMARNEVIADINCKGRSKSNLG [OSBPL1A],4.46 ± 0.39,4.38 ± 0.39
LFAIANGFSPSYEFFAVTRFLVGM [SLC22A15],3.06 ± 0.34,2.57 ± 1.3
LFDMCGISEAQLKDRETSKVIYDF [WASL],2.58 ± 0.16,2.7 ± 0.3
LFFPVIYDVKYLMKSCKNLKGGLQ [CNOT7],2.72 ± 0.35,2.5 ± 0.28
LFGDAFAASPGEAPAASEGAAAPA [SNAP91],5.07 ± 0.3,5.15 ± 0.15
LFPQWHLPIKIAAIIASLTFLYTL [STEAP1],3.39 ± 0.8,3.13 ± 0.48
LGEEWSLHKIYLCQSGYFSSMFSG [GMCL1],2.72 ± 1.1,3.4 ± 0.97
LGETPENSNLEEPLNPKPHKKKSP [ZNF449],5.41 ± 0.38,5.47 ± 0.12
LGGEQAEEKAFESVIEPVQESSFR [MIA2],5.16 ± 0.54,5.44 ± 0.1
LGLGTRESHSCPQQVPMPPGQEAQ [NEK8],4.98 ± 0.19,4.87 ± 0.097
LGPCVVGYGIYYFIYSTWKGRTIY [SAT2],2.97 ± 0.28,2.97 ± 0.51
LHEALQDYEAGQHMEDPRRAGKML [ESRRG],4.74 ± 0.29,4.68 ± 0.38
LHRESSNFDSIYICPSTFACAQLA [HDAC6],2.15 ± 0.46,2.11 ± 0.16
LHYFPFFLMGRVLYFHHYFPAMLF [POMT2],3.09 ± 0.93,2.58 ± 0.52
LIKLGLERFHGVGILGFNSAEWFI [ACSBG2],1.91 ± 0.25,2.13 ± 0.65
LINHKKAEDTEKKDEPSKYNQQQA [CEP70],5.4 ± 0.21,5.26 ± 0.38
LIQHQRIHKGEKPYQCSQCSKSYS [ZSCAN9],2.89 ± 0.3,3.26 ± 0.26
LKPLCGCHSFAAAADGPTVCCNPY [SMAD6],2.75 ± 0.5,2.92 ± 0.39
LKYENDYPSVILRDPLQTDTLQND [ETS1],4.2 ± 0.31,4.53 ± 0.34
LLFSDKNVNSNLITWNRVVLLHGP [TRIP13],2.91 ± 0.79,2.28 ± 0.53
LLGRERDRVQVERDGLAEDLAALK [PRPH],4.2 ± 0.26,4.37 ± 0.18
LLPDGRHAVVEVEDVPLAAKLVDL [TAF7L],4.28 ± 0.3,4.22 ± 0.18
